Test results taken from article PMC3746069 (FEBS letters, 2013).

B2: Outer arm dynein intermediate chain 2 with C-terminal 6xHis (IC2-6xHis) (natural protein, Chlamydomonas reinhardtii, UniProt P27766 1-567, looked up)
chain: MEIYHQYIKLRKQFGRFPKFGDEGSEMLADIRPNEDHGKEYIPRNPVTTVTQCVPEMSEHEANTNAVILVNKAMSHVEGGWPKDVDYTEAEHTIRYRKKVEKDEDYIRTVVQLGSSVEDLIKQNNAVDIYQEYFTNVTMDHTSEAPHVKTVTVFKDPNNIKRSASYVNWHPDGSVPKVVVAYSILQFQQQPAGMPLSSYIWDVNNPNTPEYEMVPTSQICCAKFNLKDNNLVGAGQYNGQLAYFDVRKGNGPVEATPIDISHRDPIYDFAWLQSKTGTECMTVSTDGNVLWWDLRKMNECVENMPLKEKNSETTVGGVCLEYDTNAGPTNFMVGTEQGQIFSCNRKAKNPVDRVKYVLSGHHGPIYGLRRNPFNSKYFLSIGDWTARVWVEDTAVKTPILTTKYHPTYLTGGTWSPSRPGVFFTIKMDGAMDVWDLYYKHNEPTLTVQVSDLALTAFAVQESGGTVAVGTSDGCTSVLQLSTGLSEASPAEKANINAMFERETTREKNLEKAIKEAKVKARKEQGRRDEVKDNVTEEQLKALEDEFFKTTDPAVGGGYGAGEGAAAE

How the values were obtained:
[1] = target: T1, Outer dynein arm docking complex subunit DC2 with C-terminal 6xHis (DC2-6xHis) (Chlamydomonas reinhardtii, UniProt A8JF70 1-552); assay: pull-down
T1 sequence (looked up): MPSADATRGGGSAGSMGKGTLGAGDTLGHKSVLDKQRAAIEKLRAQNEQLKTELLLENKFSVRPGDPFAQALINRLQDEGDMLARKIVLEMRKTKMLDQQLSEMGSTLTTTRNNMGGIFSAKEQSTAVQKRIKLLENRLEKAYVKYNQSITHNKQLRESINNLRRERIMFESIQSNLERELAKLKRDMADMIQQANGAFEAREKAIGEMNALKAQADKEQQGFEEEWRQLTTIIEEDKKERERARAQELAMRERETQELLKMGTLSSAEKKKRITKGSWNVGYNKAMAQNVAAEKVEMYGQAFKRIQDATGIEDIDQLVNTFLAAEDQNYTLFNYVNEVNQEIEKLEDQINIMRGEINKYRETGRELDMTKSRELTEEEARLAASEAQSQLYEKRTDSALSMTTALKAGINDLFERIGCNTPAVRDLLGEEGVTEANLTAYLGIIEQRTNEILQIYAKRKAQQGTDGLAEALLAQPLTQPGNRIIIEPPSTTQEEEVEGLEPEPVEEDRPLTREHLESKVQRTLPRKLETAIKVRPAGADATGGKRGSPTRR

[2] = target: T2, Outer arm dynein intermediate chain 1 with N-terminal 6xHis (His-IC1) (Chlamydomonas reinhardtii, UniProt Q39578 1-683); assay: co-IP
T2 sequence (looked up): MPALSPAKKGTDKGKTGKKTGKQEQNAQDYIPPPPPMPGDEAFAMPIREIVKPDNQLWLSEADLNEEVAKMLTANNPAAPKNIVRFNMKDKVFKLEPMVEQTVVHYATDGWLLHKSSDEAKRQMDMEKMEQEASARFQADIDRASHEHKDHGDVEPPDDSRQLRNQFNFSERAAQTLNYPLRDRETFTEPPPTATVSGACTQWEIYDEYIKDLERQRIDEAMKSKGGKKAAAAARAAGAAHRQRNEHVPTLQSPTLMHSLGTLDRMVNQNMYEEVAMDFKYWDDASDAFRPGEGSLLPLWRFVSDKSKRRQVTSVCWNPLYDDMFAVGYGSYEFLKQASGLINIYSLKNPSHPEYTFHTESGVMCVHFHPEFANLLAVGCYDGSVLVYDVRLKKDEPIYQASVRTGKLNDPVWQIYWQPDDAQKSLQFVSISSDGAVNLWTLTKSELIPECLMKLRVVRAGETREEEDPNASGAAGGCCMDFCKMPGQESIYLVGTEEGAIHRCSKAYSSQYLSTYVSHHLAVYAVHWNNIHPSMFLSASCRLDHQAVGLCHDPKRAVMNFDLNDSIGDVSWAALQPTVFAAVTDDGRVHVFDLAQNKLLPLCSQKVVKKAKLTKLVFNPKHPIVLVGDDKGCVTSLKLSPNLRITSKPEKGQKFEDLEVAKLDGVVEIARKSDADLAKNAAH

[3] = target: B2; assay: pull-down

B1: Outer dynein arm docking complex subunit DC1, not tagged (natural protein)
chain: not shown
[1]
  stoichiometry N: 1 DC1:DC2

## B2
[2]
  binding result: binds

B3: Outer arm dynein intermediate chain 1 (IC1), not tagged (natural protein, Chlamydomonas reinhardtii, UniProt Q39578 1-683, looked up)
chain: MPALSPAKKGTDKGKTGKKTGKQEQNAQDYIPPPPPMPGDEAFAMPIREIVKPDNQLWLSEADLNEEVAKMLTANNPAAPKNIVRFNMKDKVFKLEPMVEQTVVHYATDGWLLHKSSDEAKRQMDMEKMEQEASARFQADIDRASHEHKDHGDVEPPDDSRQLRNQFNFSERAAQTLNYPLRDRETFTEPPPTATVSGACTQWEIYDEYIKDLERQRIDEAMKSKGGKKAAAAARAAGAAHRQRNEHVPTLQSPTLMHSLGTLDRMVNQNMYEEVAMDFKYWDDASDAFRPGEGSLLPLWRFVSDKSKRRQVTSVCWNPLYDDMFAVGYGSYEFLKQASGLINIYSLKNPSHPEYTFHTESGVMCVHFHPEFANLLAVGCYDGSVLVYDVRLKKDEPIYQASVRTGKLNDPVWQIYWQPDDAQKSLQFVSISSDGAVNLWTLTKSELIPECLMKLRVVRAGETREEEDPNASGAAGGCCMDFCKMPGQESIYLVGTEEGAIHRCSKAYSSQYLSTYVSHHLAVYAVHWNNIHPSMFLSASCRLDHQAVGLCHDPKRAVMNFDLNDSIGDVSWAALQPTVFAAVTDDGRVHVFDLAQNKLLPLCSQKVVKKAKLTKLVFNPKHPIVLVGDDKGCVTSLKLSPNLRITSKPEKGQKFEDLEVAKLDGVVEIARKSDADLAKNAAH
[3]
  stoichiometry N: 1 IC1:IC2
